{"source": "the RNAGym collection of RNA variant scans (doi:10.7554/elife.80360)", "parents": {"B1": {"name": "Twister Ribozyme (parent)", "chain": "AACACUGCCAAUGCCGGUCCCAAGCCCGGAUAAAAGUGGAGGGGGCGG"}}}
{"variants_of": "B1", "test": "self-cleavage, relative activity (ratio to wild type); higher = more cleavage; co-transcriptional"}
{"variant": "AACACUGCCAAUGCCGGACCCAAGCCCGAAUAAAAGUGGAGGGGGCGG", "note": "[U18A G29A]", "self-cleavage": 0.41}
{"variant": "AACACUGCCAAUGCCGGACCUAAGCCCGGAUAAAAGUGGAGGGGGCGG", "note": "[U18A C21U]", "self-cleavage": 0.0595}
{"variant": "AACACUGCCAAUGCCGGGCCCAAGCCGGGAUAAAAGUGGAGGGGGCGG", "note": "[U18G C27G]", "self-cleavage": 0.0399}
{"variant": "AACACUGCCAAUGCCGGGCCCAAGCCUGGAUAAAAGUGGAGGGGGCGG", "note": "[U18G C27U]", "self-cleavage": 0.0822}
{"variant": "AACACUGCCAAUGCCGGGCCCAAGCCAGGAUAAAAGUGGAGGGGGCGG", "note": "[U18G C27A]", "self-cleavage": 0.0641}
{"variant": "AACACUGCCAAUGCCGGCCCCAAGCCCGGAUAAAAUUGGAGGGGGCGG", "note": "[U18C G36U]", "self-cleavage": 0.0651}
{"variant": "AACACUGCCAAUGCCGGCCCCAAGCCCGGAUAAAAAUGGAGGGGGCGG", "note": "[U18C G36A]", "self-cleavage": 0.158}
{"variant": "AACACUGCCAAUGCCGGCCCCAAGCCCGGAUAAAAGUGAAGGGGGCGG", "note": "[U18C G39A]", "self-cleavage": 0.111}
{"variant": "AACACUGCCAAUGCCGGCCCCAAGCCCGGAUAAAAGUGCAGGGGGCGG", "note": "[U18C G39C]", "self-cleavage": 0.108}
{"variant": "AACACUGCCAAUGCCGGCCCCAAGCCUGGAUAAAAGUGGAGGGGGCGG", "note": "[U18C C27U]", "self-cleavage": 0.182}
{"variant": "AACACUGCCAAUGCCGGCCCCAAGCCAGGAUAAAAGUGGAGGGGGCGG", "note": "[U18C C27A]", "self-cleavage": 0.0979}
{"variant": "AACACUGCCAAUGCCGGACCCAAGCCCGGAUAAAAGUGGACGGGGCGG", "note": "[U18A G41C]", "self-cleavage": 0.0769}
{"variant": "AACACUGCCAAUGCCGGACCCAAGCCCGGAUAAAAGUGGAUGGGGCGG", "note": "[U18A G41U]", "self-cleavage": 0.125}
{"variant": "AACACUGCCAAUGCCGGACCCAAGCCCGGAUAAAAGUGGAGGGGACGG", "note": "[U18A G45A]", "self-cleavage": 0.32}
{"variant": "AACACUGCCAAUGCCGGACCCAAGCCCGGAUAAAAGUGGAGGGGCCGG", "note": "[U18A G45C]", "self-cleavage": 0.155}
{"variant": "AACACUGCCAAUGCCGGACCCAAGCACGGAUAAAAGUGGAGGGGGCGG", "note": "[U18A C26A]", "self-cleavage": 0.313}
{"variant": "AACACUGCCAAUGCCGGACCCAAGCUCGGAUAAAAGUGGAGGGGGCGG", "note": "[U18A C26U]", "self-cleavage": 0.158}
{"variant": "AACACUGCCAAUGCCGGGCCCAAGCCCGGAUAAGAGUGGAGGGGGCGG", "note": "[U18G A34G]", "self-cleavage": 0.079}
{"variant": "AACACUGCCAAUGCCGGGCUCAAGCCCGGAUAAAAGUGGAGGGGGCGG", "note": "[U18G C20U]", "self-cleavage": 0.102}
{"variant": "AACACUGCCAAUGCCGGCCCCAAGCCCGGAUACAAGUGGAGGGGGCGG", "note": "[U18C A33C]", "self-cleavage": 0.386}
{"variant": "AACACUGCCAAUGCCGGCCCAAAGCCCGGAUAAAAGUGGAGGGGGCGG", "note": "[U18C C21A]", "self-cleavage": 0.0881}
{"variant": "AACACUGCCAAUGCCGGCCCUAAGCCCGGAUAAAAGUGGAGGGGGCGG", "note": "[U18C C21U]", "self-cleavage": 0.0707}
{"variant": "AACACUGCCAAUGCCGGACCCAAGACCGGAUAAAAGUGGAGGGGGCGG", "note": "[U18A C25A]", "self-cleavage": 0.0777}
{"variant": "AACACUGCCAAUGCCGGACCCAAGGCCGGAUAAAAGUGGAGGGGGCGG", "note": "[U18A C25G]", "self-cleavage": 0.0662}
{"variant": "AACACUGCCAAUGCCGGCCCCUAGCCCGGAUAAAAGUGGAGGGGGCGG", "note": "[U18C A22U]", "self-cleavage": 0.243}
{"variant": "AACACUGCCAAUGCCGGCCCCCAGCCCGGAUAAAAGUGGAGGGGGCGG", "note": "[U18C A22C]", "self-cleavage": 0.397}
{"variant": "AACACUGCCAAUGCCGGACCCAAGCCCGGAUAAAAGUGGAGGGGGCUG", "note": "[U18A G47U]", "self-cleavage": 0.174}
{"variant": "AACACUGCCAAUGCCGGACCCAAGCCUGGAUAAAAGUGGAGGGGGCGG", "note": "[U18A C27U]", "self-cleavage": 0.385}
{"variant": "AACACUGCCAAUGCCGGGCCCAAGCCCGGAUAAAAGUGGAGGGGGCGG", "note": "[U18G]", "self-cleavage": 0.0785}
{"variant": "AACACUGCCAAUGCCGGCCCCAAGCCCGGAUAAAAGUGGAGGGGGCGG", "note": "[U18C]", "self-cleavage": 0.664}
{"variant": "AACACUGCCAAUGCCGGGCCCAAGCCCGGAUAAAAGUGGAGGGGGGGG", "note": "[U18G C46G]", "self-cleavage": 0.0845}
{"variant": "AACACUGCCAAUGCCGGGCCCAAGCCCGGAUAAAAGUGGAGGGGGUGG", "note": "[U18G C46U]", "self-cleavage": 0.129}
{"variant": "AACACUGCCAAUGCCGGCCCCAAGCCCGGACAAAAGUGGAGGGGGCGG", "note": "[U18C U31C]", "self-cleavage": 0.569}
{"variant": "AACACUGCCAAUGCCGGCUCCAAGCCCGGAUAAAAGUGGAGGGGGCGG", "note": "[U18C C19U]", "self-cleavage": 0.247}
{"variant": "AACACUGCCAAUGCCGGCGCCAAGCCCGGAUAAAAGUGGAGGGGGCGG", "note": "[U18C C19G]", "self-cleavage": 0.0747}
{"variant": "AACACUGCCAAUGCCGGACCCAAGCCCGGAUAAAAGAGGAGGGGGCGG", "note": "[U18A U37A]", "self-cleavage": 0.0711}
{"variant": "AACACUGCCAAUGCCGGACCCAAGCCCGGAUAAAAGGGGAGGGGGCGG", "note": "[U18A U37G]", "self-cleavage": 0.137}
{"variant": "AACACUGCCAAUGCCGGGCCCAAUCCCGGAUAAAAGUGGAGGGGGCGG", "note": "[U18G G24U]", "self-cleavage": 0.0765}
{"variant": "AACACUGCCAAUGCCGGCCCCAAGCCCGGAUAAAAGUGGAGGGUGCGG", "note": "[U18C G44U]", "self-cleavage": 0.498}
{"variant": "AACACUGCCAAUGCCGGCCCCAAGCCCGGAUAAAAGUGGAGGGCGCGG", "note": "[U18C G44C]", "self-cleavage": 0.49}
{"variant": "AACACUGCCAAUGCCGGCCCCAAGCCCGGAUAAAAGUGGGGGGGGCGG", "note": "[U18C A40G]", "self-cleavage": 0.121}
{"variant": "AACACUGCCAAUGCCGGCCCCAAGCCCGGAUAAAAGUGGUGGGGGCGG", "note": "[U18C A40U]", "self-cleavage": 0.113}
{"variant": "AACACUGCCAAUGCCGGCCCCAAGCCCGGAUAAAAGUGGCGGGGGCGG", "note": "[U18C A40C]", "self-cleavage": 0.0612}
{"variant": "AACACUGCCAAUGCCGGCCCCAAGCCCGGAUAAAAGUGGAGAGGGCGG", "note": "[U18C G42A]", "self-cleavage": 0.0575}
{"variant": "AACACUGCCAAUGCCGGCCCCAAGCCCGGAUAAAAGUGGAGUGGGCGG", "note": "[U18C G42U]", "self-cleavage": 0.0957}
{"variant": "AACACUGCCAAUGCCGGCCCCAAGCCCGGAUAAAGGUGGAGGGGGCGG", "note": "[U18C A35G]", "self-cleavage": 0.139}
{"variant": "AACACUGCCAAUGCCGGCCCCAAGCCCGGAUAAACGUGGAGGGGGCGG", "note": "[U18C A35C]", "self-cleavage": 0.641}
{"variant": "AACACUGCCAAUGCCGGGCCCAAGCCCGGAUAAAAGUGGUGGGGGCGG", "note": "[U18G A40U]", "self-cleavage": 0.0452}
{"variant": "AACACUGCCAAUGCCGGGCCCAAGCCCGGAUAAAAGUGGGGGGGGCGG", "note": "[U18G A40G]", "self-cleavage": 0.0494}
{"variant": "AACACUGCCAAUGCCGGCCCCAAGCCCGGUUAAAAGUGGAGGGGGCGG", "note": "[U18C A30U]", "self-cleavage": 0.512}
{"variant": "AACACUGCCAAUGCCGGGCCCAAGCCCAGAUAAAAGUGGAGGGGGCGG", "note": "[U18G G28A]", "self-cleavage": 0.0711}
{"variant": "AACACUGCCAAUGCCGGACCCAAGCCCGGAUAAAAGUGGAGGUGGCGG", "note": "[U18A G43U]", "self-cleavage": 0.125}
{"variant": "AACACUGCCAAUGCCGGACCCAAGCCCGGAUAAAAGUGGAGGCGGCGG", "note": "[U18A G43C]", "self-cleavage": 0.144}
{"variant": "AACACUGCCAAUGCCGGGCCCAAGCACGGAUAAAAGUGGAGGGGGCGG", "note": "[U18G C26A]", "self-cleavage": 0.0682}
